According to paper PMC3565967, “Biochemical Similarities and Differences between the Catalytic [4Fe-4S] Cluster Containing Fumarases FumA and FumB from Escherichia coli” (PLoS ONE, 2013):

What was measured:
FumA = FumA (Escherichia coli, UniProt P0AC33); assay: fumarate depletion at […] nm, Michaelis-Menten fit; format: biochemical; conditions: anaerobic, 100 mM EPPS pH 8, 5% glycerol, 0.5 mM DTT, 37 °C; regenerated [4Fe-4S] enzyme
FumB = biological target: T1, FumB (Escherichia coli, UniProt P14407); assay: fumarate depletion at […] nm, Michaelis-Menten fit; format: biochemical; conditions: anaerobic, 100 mM EPPS pH 8, 5% glycerol, 0.5 mM DTT, 37 °C; regenerated [4Fe-4S] enzyme
T1 construct: full length, N-terminal His-tag (pET15b, gene from plasmid pGS56), expressed in E. coli BL21(DE3); [4Fe-4S] cluster regenerated with Fe2+ and L-cysteine; homodimer circa 120 kDa

purified protein [1] = substrate: O=C(O)C(O)C(O)C(=O)O; assay: purified protein; conditions: anaerobic, 100 mM EPPS pH 8, 5% glycerol, 0.5 mM DTT, 100 µM NADH, 1 mM MgCl2, 37 °C, regenerated [4Fe-4S] enzyme
purified protein [2] = substrate: O=C(O)C[C@H](O)C(=O)O; assay: purified protein; conditions: anaerobic, 100 mM EPPS pH 8, 5% glycerol, 0.5 mM DTT, 37 °C, regenerated [4Fe-4S] enzyme
[3] = biological target: the molecule itself; assay: SEC; Superdex 200, to estimate the molecular weight of the native enzyme; data not shown

Molecule | Km (FumA) [µM] | Km (FumB) [µM] | Km (purified protein [1]) [µM] | Vmax (purified protein [1]) | kcat/Km (purified protein [1]) | Km (purified protein [2]) [µM] | Vmax (purified protein [2]) | kcat/Km (purified protein [2]) | stoichiometry N [3]
O=C(O)/C=C/C(=O)O [fumarate] | 460 ± 80 | 320 ± 40 |  |  |  |  |  |  | 
Fumarase B (FumB) from Escherichia coli (enzyme, E. coli, UniProt P14407 1-548, looked up, FumB, class I [4Fe-4S] fumarase of E. coli; the gene from plasmid pGS56 was cloned into pET15b; After nickel column purification the enzyme held [3Fe-4S] clusters in only 10-25% of the protein, the rest being apoprotein; also called fumarate hydratase class I, anaerobic; source: E. coli BL21(DE3), pET15b-FumB, purified (nickel sepharose column)) MSNKPFIYQAPFPMGKDNTEYYLLTSDYVSVADFDGETILKVEPEALTLLAQQAFHDASFMLRPAHQKQVAAILHDPEASENDKYVALQFLRNSEIAAKGVLPTCQDTGTAIIVGKKGQRVWTGGGDEETLSKGVYNTYIEDNLRYSQNAALDMYKEVNTGTNLPAQIDLYAVDGDEYKFLCVAKGGGSANKTYLYQETKALLTPGKLKNFLVEKMRTLGTAACPPYHIAFVIGGTSAETNLKTVKLASAHYYDELPTEGNEHGQAFRDVQLEQELLEEAQKLGLGAQFGGKYFAHDIRVIRLPRHGASCPVGMGVSCSADRNIKAKINREGIWIEKLEHNPGQYIPQELRQAGEGEAVKVDLNRPMKEILAQLSQYPVSTRLSLTGTIIVGRDIAHAKLKELIDAGKELPQYIKDHPIYYAGPAKTPAGYPSGSLGPTTAGRMDSYVDLLQSHGGSMIMLAKGNRSQQVTDACHKHGGFYLGSIGGPAAVLAQQSIKHLECVAYPELGMEAIWKIEVEDFPAFILVDDKGNDFFQQIVNKQCANCTK |  |  | 800 ± 100 | 9.2±0.4 umol product/minute/mg enzyme | (12±2)⋅10^3 s^-1 M^-1 | 300 ± 70 | (4.9±0.3)·10^2 umol product/minute/mg enzyme | (1.6±0.4)⋅10^6 s^-1 M^-1 | 2
FumA (Escherichia coli K-12) (protein) SNKPFHYQAPFPLKKDDTEYYLLTSEHVSVSEFEGQEILKVAPEALTLLARQAFHDASFMLRPAHQQQVADILRDPEASENDKYVALQFLRNSDIAAKGVLPTCQDTGTAIIVGKKGQRVWTGGGDEAALARGVYNTYIEDNLRYSQNAPLDMYKEVNTGTNLPAQIDLYAVDGDEYKFLCIAKGGGSANKTYLYQETKALLTPGKLKNYLVEKMRTLGTAACPPYHIAFVIGGTSAETNLKTVKLASAKYYDELPTEGNEHGQAFRDVELEKELLIEAQNLGLGAQFGGKYFAHDIRVIRLPRHGASCPVGMGVSCSADRNIKAKINRQGIWIEKLEHNPGKYIPEELRKAGEGEAVRVDLNRPMKEILAQLSQYPVSTRLSLNGTIIVGRDIAHAKLKERMDNGEGLPQYIKDHPIYYAGPAKTPEGYASGSLGPTTAGRMDSYVDQLQAQGGSMIMLAKGNRSQQVTDACKKHGGFYLGSIGGPAAVLAQGSIKSLECVEYPELGMEAIWKIEVEDFPAFILVDDKGNDFFQQIQLTQCTRCVK |  |  | 800 ± 300 | 2.3±0.3 umol product/minute/mg enzyme | (3±1)⋅10^3 s^-1 M^-1 | 700 ± 100 | (7.2±0.4)·10^2 umol product/minute/mg enzyme | (1.0±0.2)⋅10^6 s^-1 M^-1 | 
